The record followed here is patent US9611303B2, “Modified biotin-binding protein” (Japan Tobacco Inc., priority 2009, dated 2017).

Data set [1] in a line: Purification of LATM2 with 2-iminobiotin-agarose. The format is binding. Conditions: for Recovery rate (%): Iminobiotin-agarose, binding at pH 12, elution with 50 mM NH4OAC (pH 4). How it is done:
LATM2 was purified through a column charged with 2-iminobiotin-agarose (manufactured by Sigma-Aldrich Corp.) in accordance with the method by Hofmann, et al., (1980). IPTG was added to 25 mL of a culture solution of E. coli transformed with each LATM2 in a final concentration of 1 mM to induce expression. The E. coli cells were collected by centrifugation, suspended in 1.5 mL of 50 mM CAPS (pH 12) containing 50 mM NaCl, and then sonicated. To the supernatant of the disrupted cells, 500 μL of 2-iminobiotin-agarose was added, which was then packed in a column. The column was sufficiently washed with 50 mM CAPS (pH 12) containing 500 mM NaCl, and elution was then performed with 50 mM NH4OAC (pH 4).
(§1) The recovery rate in Table 2 was calculated by dividing the amount of LATM2 protein after purification by the amount of LATM2 protein before purification and was expressed by percent by multiplying the quotient by 100. The degree of purification was the ratio of the amount of LATM2 protein to the total amount of proteins in the purified fraction and was expressed by percent by multiplying the ratio by 100. The recovery rates and the degrees of purification in biotin-agarose were the results after binding at pH 7 and elution with an excess amount of biotin.

The test system of another data set is Proteinase K. Put plainly: Protease resistance of LATM2 (SDS-PAGE). Conditions: 5 μM Proteinase K, 30° C., 15 min, presence or absence of biotin. On the procedure: Throughout the specification, “having protease resistance” refers to that a protein is not enzymatically decomposed or not substantially decomposed by protease treatment. The protease treatment is performed by, for example, proteinase K treatment at 30° C. for 15 min. The term “not enzymatically decomposed” refers to that bands of a tetramer, dimer, and/or monomer of the protein can be clearly detected by SDS-PAGE after enzyme treatment, as in wild-type TM2. That is, a protein not having protease resistance is decomposed into small molecules by protease treatment, and bands of the tetramer, dimer, and monomer are not detected by SDS-PAGE after the protease treatment. […] Accordingly, bands of the tetramer and/or the dimer or monomer generated by dissociation of the tetramer are detected by SDS-PAGE. […] of each of the LATM2s (TM2 S36A, TM2 […], TM2 […], TM2 […], TM2 […], TM2 S36A-[…], TM2 […], and […]) purified by biotin-agarose was subjected to a reaction in 50 mM Tris-HCl (pH 8.0) containing 5 μM Proteinase K and 5 mM CaCl2 at 30° C. for 15 min. […] Then, an SDS buffer was added to each reaction solution, followed by heat treatment at 95° C. for 10 min to terminate the reaction. The resulting sample was subjected to SDS-PAGE, followed by CBB staining.

Data set [2] can be described thus: Heat resistance of LATM2 by SDS-PAGE. Format: physicochemical. Conditions: absence of biotin, 20 min in SDS sample buffer. On the procedure: The heat resistance of LATM2s was investigated by SDS-PAGE. Each protein was heat treated at predetermined temperatures for 20 min in an SDS sample buffer in the presence or absence of biotin and was then subjected to SDS-PAGE, followed by CBB staining. The heating temperatures in a biotin-free experimental system were 80° C., 82° C., 84° C., 86° C., 88° C., 90° C., 92° C., and 94° C., and heating temperatures in a biotin-containing experimental system were 86° C., 88° C., 90° C., 92° C., 96° C., 98° C., and 100° C.

Data set [3] in a line: Subunit association by FPLC on Sephacryl S-100HR. Conditions: for Structure (identified by FPLC): Sephacryl S-100HR, 50 mM potassium phosphate, 500 mM NaCl; for Sephacryl (mL), elution peak position: tetramer 44 to 47 mL, dimer 51 to 54 mL, monomer 63 to 66 mL. The format is physicochemical. How it is done: In order to analyze the subunit association conditions of LATM2, the molecular weight of each LATM2s was measured by FPLC. Sephacryl S-100HR (manufactured by GE Healthcare) was used as a column, a Gel Filtration Calibration Kit LMW (manufactured by GE Healthcare) was used as molecular weight markers, and 50 mM potassium phosphate containing 500 mM NaCl was used as a buffer.
The positions of the peaks of eluted tetramer were defined to be 44 to 47 mL after injection of WT-TM2 as a control. The peak of an eluted monomer appeared at around 63 to 66 mL and the peak of an eluted dimer appeared at around 51 to 54 mL, from result of loading the molecular weight markers.

A short description of data set [4]: Purification of LATM2 with biotin-agarose. Format: binding. On the procedure: Purification with biotin-agarose (manufactured by Sigma-Aldrich Corp.) was performed by the following procedure. After induced expression of 25 mL of a culture solution of E. coli for each LATM2, the E. coli cells were suspended in 1.5 mL of a 100 mM potassium phosphate buffer (pH 7.0), and then sonicated. To the supernatant of the disrupted cells. 400 μL of biotin-agarose was added, which was followed by upside-down mixing for 1 hr. […]
In TM2 S36A-T78A-D116A, the E. coli cells were suspended in 1.5 mL of 50 mM CAPS (pH 12) containing 50 mM NaCl, and then sonicated. To the disrupted cells, 400 μL of biotin-agarose was added, which was followed by upside-down mixing for 1 hr. The column was sufficiently washed with 50 mM CAPS (pH 12) containing 500 mM NaCl, and elution was then performed with 1 mL of PBS (pH 7.4) containing 10 mM biotin.
In TM2 S36A-D116A, the E. coli cells were suspended in 1.5 mL of a 100 mM potassium phosphate buffer (pH 4.0), and then sonicated. To the pupernatant of the disrupted cells, 400 μL of biotin-agarose was added. Washing was performed with a 100 mM potassium phosphate buffer (pH 4) containing 500 mM NaCl, and elution was performed with 1 mL of PBS (pH 7) containing 10 mM biotin. Biotin binding to LATM2 that has been eluted with an excess amount of biotin was removed by dialysis with a 20 mM potassium phosphate buffer overnight.
as §1

The nature of data set [5]: pH-dependence of binding to biotin-agarose. On the procedure:
E. coli cells were collected from 25 mL of an E. coli culture solution in which expression TM2 S36A-D116A was induced with 1 mM IPTG, were suspended in 1.5 mL of a 100 mM potassium phosphate buffer ([…]) or 1.5 mL of a 50 mM CAPS (pH 12.0), and then were sonicated. The disrupted cells were centrifugated, and 400 μL of biotin-agarose was added to the supernatant. […] Furthermore, the TM2 S36A-D116A protein was dissociated from the carrier by increasing the pH of the reaction solution to 7.0 or 12.0 and was recovered at an efficiency of 95%.
TM2 S36A-T78A-D116A was also investigated for its pH-dependence. The protein was suspended in a buffer of pH 4.0 or pH 12.0 and was sonicated. […] By utilizing this property, high purity TM2 S36A-T78A-D116A was obtained by binding the protein to biotin-agarose at pH 4.0 and eluting it at pH 7.0 (FIG. 3B).

Where [6] appears, read: Biotin-agarose, binding at pH 7, recovery with 10 mM biotin.

Substitutions are numbered along the chain they refer to. In names and notes the source's numbering stands.

B1: TM2 T78A: TM2 in which the 78th threonine was replaced with alanine; SEQ ID NO: 10 (protein)
chain: MSDVQSSLTGTWYNELNSKMELTANKDGTLTGKYLSKVGDVYVPYPLSGRYNLQPPAGQGVALGWAVSWENSKIHSAATWSGQFFSESSPVILTQWLLSSSTARGDVWESTLVGNDSFTKTAPTEQQIAHAQLHCRAPRLK
modifications: Synthetic TM2 T78A
As to B1, in data set [1], the “Recovery rate (%)” value turned out to be 10%. Further, in data set [1] (purification with 2-iminobiotin-agarose), the “recovery rates compared with WT” value is “inferior to WT”. The “decomposition by Proteinase K” value with Proteinase K is given as “hardly decomposed”. In addition, in data set [2], the “Tr value (temperature at which ratio monomer:tetramer becomes 1:1)” value was found to be 88 °C. Also, the figures for the “Structure (identified by FPLC)” value in data set [3] and in data set [3] (listed as T78A) were “tetramer” and “Tetramer”, respectively. The “Sephacryl (mL), elution peak position” value in data set [3] is recorded as 45.71 mL. Also, the “Recover rate (%)” value in data set [4] (setting [6]) is on record as “about 95%”; in data set [4] (Biotin-agarose, binding at pH 7, recovery with 10 mM biotin, listed as T78A), 95%.

B2: TM2P46T-T78A: TM2 with 46th proline replaced with threonine and 78th threonine with alanine; SEQ ID NO: 14 (protein)
chain: B1 chain with P46T
modifications: Synthetic TM2 P46T-T78A
For the molecule B2, the “Recovery rate (%)” value in data set [1] was determined as 95%. Besides, in the data set on Proteinase K, the “decomposition by Proteinase K” value is recorded as “hardly decomposed”. Further, in data set [3], the “Structure (identified by FPLC)” value is given as “Tetramer” and the “Sephacryl (mL), elution peak position” value is recorded as 46.05 mL. The “recovery rate by binding at pH 12, extraction with acetic acid” value in data set [4] (Biotin-agarose) is recorded as “recovery rate: 70%”. Further, the “Recover rate (%)” value in data set [4] (setting [6]) is listed as 5%. The “Note (Biotin-agarose)” value in data set [4] (binding at pH 7, recovery with 10 mM biotin, FT = flow-through) is on record as “note eluted”.

B3: TM2 S36A-D116A: TM2 with 36th serine and 116th aspartic acid replaced with alanine; SEQ ID NO: 20 (protein)
chain: B1 chain with S36A, A78T, D116A
modifications: Synthetic TM2 S36A-D116A
Take B3: in data set [1], the “binding to 2-iminobiotin-agarose” value is “did not bind” and the “Recovery rate (%)” value was 0%. Further, the “decomposition by Proteinase K” value with Proteinase K is “approximate a half thereof was decomposed”. Moreover, in data set [3], the “Structure (identified by FPLC)” value was “Tetramer” and the “Sephacryl (mL), elution peak position” value was 46.31 mL. Besides, the “recovery rate by binding at pH 4, elution at pH 7 (without biotin)” value in data set [4] (Biotin-agarose) was found to be 95%. In addition, the “Recover rate (%)” value in data set [4] (setting [6]) came out at 0%. Moreover, the “recovery rate by binding at pH 4, elution at pH 7 (without biotin)” value in data set [4] (Biotin-agarose, listed as S36AD116A) is listed as “recovery rate: 95%”. The binding to biotin-agarose entry in data set [5] (extract at pH 4.0, pH 5.0, or pH 6.0) is “efficiently bound to biotin-agarose”. For the same molecule, the binding to biotin-agarose result in data set [5] (extract at pH 7.0 or pH 12.0) was “did not bind to biotin-agarose at all”. In data set [5] (increasing the pH to 7.0 or 12.0), the “recovery efficiency on dissociation from the carrier” value worked out at 95%.

B4: TM2 W80K: TM2 in which the 80th tryptophan was replaced with lysine; amino acid sequence SEQ ID NO: 4 (protein)
chain: B1 chain with A78T, W80K
modifications: Synthetic TM2 W80K
For the molecule B4, in data set [1], the “Recovery rate (%)” value came to 95%. Moreover, in the data set on Proteinase K, the “decomposition by Proteinase K” value is “hardly decomposed”. In data set [3], the “Structure (identified by FPLC)” value is recorded as “Tetramer” and the “Sephacryl (mL), elution peak position” value is 44.4 mL. The “Recover rate (%)” value in data set [4] (setting [6]) amounted to 50%. Further, the “recover rate by elution with acetic acid” value in data set [4] (Biotin-agarose, elution with acetic acid) is “recover rate: 95%”.

B5: TM2 S36A-T78A-D116A: TM2 with 36th serine, 78th threonine and 116th aspartic acid replaced with alanine; SEQ ID NO: 8 (protein)
chain: B1 chain with S36A, D116A
modifications: Synthetic TM2 S36A-T78A-D116A
Turning to B5, in data set [1], the “binding to 2-iminobiotin-agarose” value is “did not bind” and the “Recovery rate (%)” value is 0%. In addition, the “decomposition by Proteinase K” value in the data set with Proteinase K was “hardly decomposed”. Further, in data set [3], the “Structure (identified by FPLC)” value was “dimer” and the “Sephacryl (mL), elution peak position” value was 51.06 mL. Moreover, the “Structure (identified by FPLC)” value in data set [3] (listed as S36AT78AD116A) was “Dimer”. Also, the “recovery rate by binding at pH 4 or 12, elution at pH 7 (without biotin)” value in data set [4] (Biotin-agarose) was “recovery rate: 95%”. Moreover, in data set [4] (setting [6]), the “Recover rate (%)” value is recorded as 0%. In addition, in data set [5] (pH 4.0 or pH 12.0), the binding to biotin-agarose entry is given as “confirm its binding to biotin-agarose”. Also, the binding to biotin-agarose result in data set [5] (pH 7.0) is “did not bind to biotin-agarose at all”.

B6: TM2P46T-D116A: TM2 with 46th proline replaced with threonine and 116th aspartic acid with alanine; SEQ ID NO: 16 (protein)
chain: B1 chain with P46T, A78T, D116A
modifications: Synthetic TM2 P46T-D116A
Take B6: in data set [1], the “Recovery rate (%)” value was found to be 95%. For the same molecule, the “decomposition by Proteinase K” value in the data set with Proteinase K is recorded as “hardly decomposed”. Further, in data set [3], the “Structure (identified by FPLC)” value is “Tetramer” and the “Sephacryl (mL), elution peak position” value is recorded as 46.23 mL. Further, the “Recover rate (%)” value in data set [4] (setting [6]) was 95%.
